Data from US20260144867A1 (TIGATX, published 2026).

Target: T1, EGFR expressed on A431, A1207 and D562 cell lines (human, UniProt P00533 25-1210)
T1 construct: whole, on cells; also called EGFR-expressing A431 cell line
Test: competitive flow cytometry on A431 cells; blocked ligand: fluorescently labeled EGF (EGF-AL488)

- IC50 (read off the curve): ~3 µg/mL
B1: anti-EGFR IgA3.0min DP3 (antibody, V domains shown)
VH: QVQLVQSGAEVKKPGASVKVSCKASGYTFTSHWMHWVRQAPGQGLEWIGEFNPSNGRTNYNEKFKSKATMTVDTSTNTAYMELSSLRSEDTAVYYCASRDYDYDGRYFDYWGQGTLVTVSS
VL: DIQMTQSPSSLSASVGDRVTITCSASSSVTYMYWYQQKPGKAPKLLIYDTSNLASGVPSRFSGSGSGTDYTFTISSLQPEDIATYYCQQWSSHIFTFGQGTKVEIKR
notes: also called anti-EGFR IgA3.0min DS3
